US20250276092A1 (Regeneron, published 2025)
Where a chain is given by its changes, count along the chain named. Blank lines part the entries; values can stand above or below the binder they belong to.

Tests used:
[1] = target: T1, human CD40 expressed on cells (human, UniProt P25942 21-277); assay: cell-based or functional assay
[2] = target: T1, human CD40 expressed on cells; assay: cell-based or functional assay; remark: listed apart in the source
[3] = target: T2, human CD40 extracellular domain expressed with a C-terminal myc-myc-hexahistidine tag (human); assay: SPR 25C, captured mAb
T2 construct: also called hCD40-MMH; hCD40-mmH
Description: (§1) The equilibrium dissociation constants (KD) for anti-CD40 bivalent and bispecific monoclonal antibodies (mAbs) were determined using a real-time surface plasmon resonance (SPR)-based Biacore 4000 biosensor. All binding studies were performed in 10 mM HEPES, 150 mM NaCl, 3 mM EDTA, and 0.05% v/v surfactant Tween-20, pH 7.4 (HBS-ET) running buffer at 25° C. and 37° C. The Biacore CM5 sensor surface was first derivatized by amine coupling with a monoclonal mouse anti-human Fc antibody (REGN2567) to capture anti-CD40 bivalent parental and anti-CD40×CD40 bispecific antibodies. Different concentrations of CD40 reagents, human CD40 extracellular domain expressed with a C-terminal myc-myc-hexahistidine tag (“hCD40-MMH”; REGN3094; SEQ ID NO: 53), monkey CD40 extracellular domain expressed with a C-terminal myc-myc-hexahistidine tag (“mfCD40-MMH”; REGN3097; SEQ ID NO: 54), and mouse CD40 extracellular domain expressed with a C-terminal myc-myc-hexahistidine tag (“mCD40-MMH”; REGN3098; SEQ ID NO: 55), at concentrations ranging from 3.7 nM to 100 nM or 3.3 nM to 90 nM in a series of 3-fold dilutions prepared in HBS-ET running buffer were injected at a flow rate of […] for 4 minutes or […] for 5 minutes. The dissociation of different CD40 reagents bound to anti-CD40 bivalent parental and anti-CD40×CD40 bispecific antibodies was monitored for 10 minutes in HBS-ET running buffer. At the end of each cycle, the anti-CD40 bivalent parental and anti-CD40×CD40 bispecific antibodies capture surface was regenerated using a 12 sec injection of 20 mM H₃PO₄.
(§2) The association rate (ka) and dissociation rate (kd) were determined by fitting the real-time binding sensorgrams to a 1:1 binding model with mass transport limitation using Scrubber 2.0c curve-fitting software. Binding dissociation equilibrium constant (KD) and dissociative half-life (t½) were calculated from the kinetic rates as: KD (M)=kd/kₐ, and t_{1/2} (min)=[ln(2)/(60*kd)].

[4] = target: T1, human CD40 expressed on cells; assay: cell-based or functional assay; remark: listed apart in the source
[5] = target: T1, human CD40 expressed on cells; assay: cell-based or functional assay; remark: listed apart in the source
[6] = target: T1, human CD40 expressed on cells; assay: cell-based or functional assay; remark: listed apart in the source
[7] = target: T2, human CD40 extracellular domain …; assay: SPR 37C, captured mAb
Description: as §1, §2

[8] = target: T2, human CD40 extracellular domain …; assay: ELISA, blocks 40 nM hCD40-mmH binding to coated 9His-hCD40L
Description: In the blocking assay, 9His-hCD40L was passively absorbed at a concentration of 5 μg/mL in PBS on a 96-well microtiter plate overnight at 4° C. […] In a separate 96-well microtiter plate, a fixed amount of 40 nM hCD40-mmH was pre-mixed with one of the following antibodies, at concentrations ranging from 977 pM to 1 μM in PBS+0.5% BSA: (1) anti-CD40×CD40 bispecific antibodies (REGN16431, REGN16432, REGN16634, and REGN16335); (2) parental anti-CD40 mAbs (bivalent antibodies comprising 2 fragment antigen-binding [Fab] arms identical to one of anti-CD40 Fab of anti-CD40×CD40 antibodies); (3) anti-CD40×Irrelevant antibodies (bivalent antibodies that incorporate one Fab arm identical to one of anti-CD40 Fab of anti-CD40×CD40 antibodies and another Fab arm specific to an irrelevant antigen); and (4) human IgG4 with Fc mutation isotype control antibodies (REGN7540 and REGN4513). The fixed concentration of hCD40-mmH was selected to be near the concentration (EC₅₀ value) that generated 50% of the maximal binding to the plate-adhered 9His-hCD40L. After one-hour incubation, the antibody-antigen complexes were transferred to the microtiter plate coated with 9His-hCD40L. After one hour incubation at room temperature, the plates were washed, and plate-bound hCD40-mmH protein was detected with horseradish peroxidase (HRP) conjugated goat anti-c-Myc antibody. The plates were then developed using TMB substrate solution (BD Biosciences) according to the manufacturer's recommended procedure and the absorbance at 450 nm (OD₄₅₀) was measured on a SpectraMax i3× plate reader.
Binding data were analyzed using a sigmoidal (four-parameter logistic) dose-response model with GraphPad Prism™ software. […] The percent blocking of tested antibodies at the highest tested concentration ([…]) was calculated based on the formula shown below: […]

[9] = target: T1, human CD40 expressed on cells; assay: cell-based or functional assay; remark: listed apart in the source
[10] = target: T1, human CD40 expressed on cells; assay: cell-based or functional assay; remark: listed apart in the source
[11] = target: T1, human CD40 expressed on cells; assay: cell-based or functional assay; remark: listed apart in the source
[12] = target: T1, human CD40 expressed on cells; assay: cell-based or functional assay; remark: listed apart in the source

T1 sequence (P25942 21-277): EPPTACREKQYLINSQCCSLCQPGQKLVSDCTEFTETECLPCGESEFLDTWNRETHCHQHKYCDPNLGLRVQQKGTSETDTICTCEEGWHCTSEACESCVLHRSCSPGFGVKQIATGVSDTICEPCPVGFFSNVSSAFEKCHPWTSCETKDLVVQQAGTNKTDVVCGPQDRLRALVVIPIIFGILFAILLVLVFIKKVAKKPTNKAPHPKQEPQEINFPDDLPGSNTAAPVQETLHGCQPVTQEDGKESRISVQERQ
T2 sequence (chain, as listed by the source limits assumed): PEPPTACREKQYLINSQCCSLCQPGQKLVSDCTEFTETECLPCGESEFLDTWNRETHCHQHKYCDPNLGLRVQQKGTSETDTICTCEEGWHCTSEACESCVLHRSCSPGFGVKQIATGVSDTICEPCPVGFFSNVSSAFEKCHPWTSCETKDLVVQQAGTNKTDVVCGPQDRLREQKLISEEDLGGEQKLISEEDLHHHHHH

IC50, NFkB-luc Raji, 900 pM hCD40L [1]: 1.07e-10 M | Max % activation, NFkB-luc Raji, no ligand [1]: 13% | Max % inhibition, NFkB-luc Raji, 900 pM hCD40L [1]: 82% | IC50, NFkB-luc Ramos, 500 pM hCD40L [2]: 8.54e-11 M | Max % activation, NFkB-luc Ramos, no ligand [2]: 6% | Max % inhibition, NFkB-luc Ramos, 500 pM hCD40L [2]: 90% | 100 nM Ag Bound (RU) [3]: 61.2 RU | % max blockade relative to no mAb, TNFa, B cells, donor 1 [4]: 44.7% | % max blockade relative to no mAb, TNFa, B cells, donor 2 [4]: 74.1% | % max blockade relative to no mAb, TNFa, B cells, donor 3 [4]: 70.4% | IC50, NFkB-luc THP-1, 10 nM hCD40L [5]: 0.287 nM | Max % activation, NFkB-luc THP-1, no ligand [5]: 2% | Max % inhibition, NFkB-luc THP-1, 10 nM hCD40L [5]: 98% | % max blockade relative to no mAb, IL-10, B cells, donor 1 [6]: 80.7% | % max blockade relative to no mAb, IL-10, B cells, donor 2 [6]: 86.9% | % max blockade relative to no mAb, IL-10, B cells, donor 3 [6]: 89.3% | 100 nM Ag Bound (RU) [7]: 61.2 RU | % Blocking at highest mAb concentration [8]: 93% | % max blockade relative to no mAb, IL-6, B cells, donor 1 [9]: 84% | % max blockade relative to no mAb, IL-6, B cells, donor 2 [9]: 92.7% | % max blockade relative to no mAb, IL-6, B cells, donor 3 [9]: 92.7%
B1: REGN16431 (bispecific antibody, human IgG4 S228P, kappa)
heavy 1: QLQLQESGPGLVRPSETLSLTCSVSGASMNTNNYYWGWIRQPPGKGLEWIGSGYYNGNTYYNPSLKSRVTISVDTSKNQFSLKLNSVTAADTAVYYCARQTPPRIIGSPNIWGQGTMVTVSSASTKGPSVFPLAPCSRSTSESTAALGCLVKDYFPEPVTVSWNSGALTSGVHTFPAVLQSSGLYSLSSVVTVPSSSLGTKTYTCNVDHKPSNTKVDKRVESKYGPPCPPCPAPPVAGPSVFLFPPKPKDTLMISRTPEVTCVVVDVSQEDPEVQFNWYVDGVEVHNAKTKPREEQFNSTYRVVSVLTVLHQDWLNGKEYKCKVSNKGLPSSIEKTISKAKGQPREPQVYTLPPSQEEMTKNQVSLTCLVKGFYPSDIAVEWESNGQPENNYKTTPPVLDSDGSFFLYSRLTVDKSRWQEGNVFSCSVMHEALHNHYTQKSLSLSLGK
heavy 2: EVQLVESGGGLVQPGGSLRLSCAASGFTFGSYGMAWVRQAPGKGLEWVSAISGSGDYTNYADSVKRRFTISRDNSKNTLYLQMSSLRAEDTAVYYCAKEKTGTTGYLYSGMDVWGQGTTVTVSSASTKGPSVFPLAPCSRSTSESTAALGCLVKDYFPEPVTVSWNSGALTSGVHTFPAVLQSSGLYSLSSVVTVPSSSLGTKTYTCNVDHKPSNTKVDKRVESKYGPPCPPCPAPPVAGPSVFLFPPKPKDTLMISRTPEVTCVVVDVSQEDPEVQFNWYVDGVEVHNAKTKPREEQFNSTYRVVSVLTVLHQDWLNGKEYKCKVSNKGLPSSIEKTISKAKGQPREPQVYTLPPSQEEMTKNQVSLTCLVKGFYPSDIAVEWESNGQPENNYKTTPPVLDSDGSFFLYSRLTVDKSRWQEGNVFSCSVMHEALHNRFTQKSLSLSPGK
light: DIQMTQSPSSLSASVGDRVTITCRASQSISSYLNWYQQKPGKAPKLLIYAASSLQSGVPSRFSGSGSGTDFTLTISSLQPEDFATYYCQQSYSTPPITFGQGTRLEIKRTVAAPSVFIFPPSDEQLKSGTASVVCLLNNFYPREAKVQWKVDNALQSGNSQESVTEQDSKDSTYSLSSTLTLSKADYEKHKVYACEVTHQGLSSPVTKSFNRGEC

IC50, NFkB-luc Raji, 900 pM hCD40L [1]: 1.02e-10 M | Max % activation, NFkB-luc Raji, no ligand [1]: 5% | Max % inhibition, NFkB-luc Raji, 900 pM hCD40L [1]: 68% | IC50, NFkB-luc Ramos, 500 pM hCD40L [2]: 4.92e-11 M | Max % activation, NFkB-luc Ramos, no ligand [2]: 4% | Max % inhibition, NFkB-luc Ramos, 500 pM hCD40L [2]: 94% | 100 nM Ag Bound (RU) [3]: 56.6 RU | % max blockade relative to no mAb, TNFa, B cells, donor 1 [4]: 53.5% | % max blockade relative to no mAb, TNFa, B cells, donor 2 [4]: 68.4% | % max blockade relative to no mAb, TNFa, B cells, donor 3 [4]: 69.1% | IC50, NFkB-luc THP-1, 10 nM hCD40L [5]: 0.148 nM | Max % activation, NFkB-luc THP-1, no ligand [5]: 6% | Max % inhibition, NFkB-luc THP-1, 10 nM hCD40L [5]: 97% | % max blockade relative to no mAb, IL-10, B cells, donor 1 [6]: 81.5% | % max blockade relative to no mAb, IL-10, B cells, donor 2 [6]: 94.5% | % max blockade relative to no mAb, IL-10, B cells, donor 3 [6]: 90.6% | 100 nM Ag Bound (RU) [7]: 56.6 RU | % Blocking at highest mAb concentration [8]: 95% | % max blockade relative to no mAb, IL-6, B cells, donor 1 [9]: 83.5% | % max blockade relative to no mAb, IL-6, B cells, donor 2 [9]: 92% | % max blockade relative to no mAb, IL-6, B cells, donor 3 [9]: 92%
B2: REGN16432 (bispecific antibody, human IgG4 S228P, kappa)
heavy 1: EVQLVESGGGLVQPGGSLRLSCAASGFTFSSYAMNWVRQAPGKGLEWVSIISGTIGKTYYADSVKGRFTISRDNSKNTLYLQMNSLRGEDTAVYYCAKDTERDITGSPFDYWGQGTLVTVSSASTKGPSVFPLAPCSRSTSESTAALGCLVKDYFPEPVTVSWNSGALTSGVHTFPAVLQSSGLYSLSSVVTVPSSSLGTKTYTCNVDHKPSNTKVDKRVESKYGPPCPPCPAPPVAGPSVFLFPPKPKDTLMISRTPEVTCVVVDVSQEDPEVQFNWYVDGVEVHNAKTKPREEQFNSTYRVVSVLTVLHQDWLNGKEYKCKVSNKGLPSSIEKTISKAKGQPREPQVYTLPPSQEEMTKNQVSLTCLVKGFYPSDIAVEWESNGQPENNYKTTPPVLDSDGSFFLYSRLTVDKSRWQEGNVFSCSVMHEALHNHYTQKSLSLSLGK
heavy 2: B1 heavy 2
light: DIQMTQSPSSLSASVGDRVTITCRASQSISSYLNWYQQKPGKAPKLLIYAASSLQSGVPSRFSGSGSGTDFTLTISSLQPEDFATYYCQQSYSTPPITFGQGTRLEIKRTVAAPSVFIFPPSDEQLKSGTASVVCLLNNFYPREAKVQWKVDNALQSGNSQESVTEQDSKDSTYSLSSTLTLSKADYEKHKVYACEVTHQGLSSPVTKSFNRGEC

IC50, NFkB-luc Raji, 900 pM hCD40L [1]: 4.94e-11 M | Max % activation, NFkB-luc Raji, no ligand [1]: 9% | Max % inhibition, NFkB-luc Raji, 900 pM hCD40L [1]: 102% | IC50, NFkB-luc Ramos, 500 pM hCD40L [2]: 3.86e-11 M | Max % activation, NFkB-luc Ramos, no ligand [2]: 5% | Max % inhibition, NFkB-luc Ramos, 500 pM hCD40L [2]: 93% | % max blockade relative to no mAb, IL-10, assay #2, donor 1 [10]: 88.5% | % max blockade relative to no mAb, IL-10, assay #2, donor 2 [10]: 87.8% | % max blockade relative to no mAb, TNFa, B cells, donor 1 [4]: 45% | % max blockade relative to no mAb, TNFa, B cells, donor 2 [4]: 64.7% | % max blockade relative to no mAb, TNFa, B cells, donor 3 [4]: 61.6% | IC50, NFkB-luc THP-1, 10 nM hCD40L [5]: 0.221 nM | Max % activation, NFkB-luc THP-1, no ligand [5]: 3% | Max % inhibition, NFkB-luc THP-1, 10 nM hCD40L [5]: 98% | % max blockade relative to no mAb, IL-10, B cells, donor 1 [6]: 78.5% | % max blockade relative to no mAb, IL-10, B cells, donor 2 [6]: 93.6% | % max blockade relative to no mAb, IL-10, B cells, donor 3 [6]: 89.8% | % Blocking at highest mAb concentration [8]: 96% | % max blockade relative to no mAb, TNFa, assay #2, donor 1 [11]: 62.4% | % max blockade relative to no mAb, TNFa, assay #2, donor 2 [11]: 52.5% | % max blockade relative to no mAb, IL-6, assay #2, donor 1 [12]: 88.4% | % max blockade relative to no mAb, IL-6, assay #2, donor 2 [12]: 87% | % max blockade relative to no mAb, IL-6, B cells, donor 1 [9]: 83.2% | % max blockade relative to no mAb, IL-6, B cells, donor 2 [9]: 91.4% | % max blockade relative to no mAb, IL-6, B cells, donor 3 [9]: 91.4%
B3: REGN16335 (bispecific antibody, human IgG4 S228P, kappa)
heavy 1: B2 heavy 1 with P235G, V236G, A237G
heavy 2: B1 heavy 2 with P237G, V238G, A239G
light: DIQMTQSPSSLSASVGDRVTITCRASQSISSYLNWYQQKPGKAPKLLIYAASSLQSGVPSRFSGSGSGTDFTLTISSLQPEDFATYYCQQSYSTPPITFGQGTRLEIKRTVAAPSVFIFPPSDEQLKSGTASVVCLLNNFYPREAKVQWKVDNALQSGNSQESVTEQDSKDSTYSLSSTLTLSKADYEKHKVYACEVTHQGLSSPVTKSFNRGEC
